These results are taken from patent publication US20220411519A1 (SHANGHAI NOVAMAB BIOPHARMACEUTICALS, published 2022).

The target in one assay is cynomolgus monkey IL-4R (cynomolgus monkey, UniProt A0A2K5V580 33-239). As to the kind of experiment: ELISA, IL-4R coated at 1 ug/mL, anti-HA detection. The method, then: (§1) ELISA was used to verify whether the candidate antibody could cross-react with IL-4R proteins of different species, and the method was as follows: (1) 1 ug/mL human IL-4R, mouse IL-4R and cynomolgus monkey IL-4R were added into the plate and coated overnight at 4° C. with 100 uL/well. (2) After washing with PBST for 5 times, 300 uL 1% BSA was added to each well and sealed for 2 hours at room temperature. (3) After washing with PBST for 5 times, 100 uL of 2 ug/mL antibody to be tested was added and incubated at 37° C. for 1 hour. (4) After washing with PBST for 5 times, 100 uL diluted anti-HA antibody (diluted at 1:2000) was added and incubated at 37° C. for 1 hour. (4) After washing with PBST for 5 times, 100 uL diluted anti-mouse IgG antibody (diluted at 1:2000) was added and incubated at 37° C. for 30 minutes. (5) After washing with PBST for 5 times, 100 uL PA chromogenic solution was added and developing at 37° C. for 10 minutes, and the absorption value was measured at 405 nm wavelength with a microplate reader. The results are shown in FIG. 6, the candidate antibody Nb103 can recognize the human IL-4R, but not mouse and cynomolgus monkey IL-4R.

The next assay concerns the target T1, mouse IL-4R (mouse, UniProt P16382 26-233, limits assumed).
T1 sequence (looked up): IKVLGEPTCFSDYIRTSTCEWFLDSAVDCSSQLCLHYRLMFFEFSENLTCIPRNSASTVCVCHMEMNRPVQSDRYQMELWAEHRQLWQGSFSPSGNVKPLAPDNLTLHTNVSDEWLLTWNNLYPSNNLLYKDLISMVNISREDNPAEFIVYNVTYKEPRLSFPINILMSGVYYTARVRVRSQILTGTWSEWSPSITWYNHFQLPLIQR
As to the kind of experiment: ELISA, IL-4R coated at 1 ug/mL, anti-HA detection. The method, then:
as §1

Assay [1] deals with T2, human IL-4R on cells (293F/IL-4R cells; HEK293F cells with high IL-4Rα expression) (human, UniProt P24394 26-825).
T2 construct: whole, on cells; also called IL-4Ra
As to the kind of experiment: flow cytometry competition: antibody titrated against 5 ug/mL IL-4-biotin on 293F/IL-4R cells, SA-PE. The method, then:
(1) A certain number of 293F/IL-4R cells that were transitioned for 48 h were centrifuged at 1000 rpm for 5 min, the supernatant was discarded, the cells were re-suspended and washed with PBS for once, and counted. The cells were divided into 96-well plates at 100 ul/well, and then centrifuged at 3000 rpm at 4° C. for 4 min. (2) The supernatant was aspirated, and the single-domain antibody with different sequences in gradient diluted in example 1 was added (two-fold gradient dilution starting from 40 ug/mL). 50 uL was added to each well, and then 50 uL of 5 ug/mL IL-4-biotin was added to mix, and incubated at 4° C. for 20 min. (3) Centrifugation was performed at 3000 rpm at 4° C. for 4 min, and the supernatant was discarded. 200 uL PBS was added to each well to wash the cells, and the supernatant was discarded by centrifugation again. Diluted SA-PE staining solution was added and incubated at 4° C. for 20 min. (4) Centrifugation was performed at 3000 rpm at 4° C. for 4 min, and the supernatant was discarded. 200 uL PBS was added to each well to wash the cells, and the supernatant was discarded by centrifugation again. 200 uL PBS was added to re-suspend the cells, and the PE signal of the samples was detected by flow cytometry.

Assay [2] has as its target T2, human IL-4R on cells (293F/IL-4R cells; …). As to the kind of experiment: cell-based or functional assay.
The next assay concerns the target rhesus monkeys IL-4R (rhesus monkey, UniProt F6RUR0 26-232). As to the kind of experiment: ELISA, coated IL-4R, same method as for FIG. 6. The method, then:
as §1
ELISA was used again to verify whether the candidate antibody could cross-react with IL-4R protein of different monkey types. The detection method was the same as above. […]

Assay [3] has as its target T2, human IL-4R on cells (293F/IL-4R cells; …). As to the kind of experiment: flow cytometry on HEK293F cells with high IL-4Rα expression, anti-human Fc-FITC. The method, then:
(1) HEK293F cells with high IL-4Rα expression were collected, centrifuged at 1000 rpm for 5 min, and the supernatant was discarded. The cells were re-suspended with 5 mL PBS and centrifuged at 1000 rpm for 5 min, and the supernatant was discarded. Then the cells were re-suspended with 2 mL PBS, and counted. The cells were divided into 96-well plates with 3×10⁵ cells per well; (2) Humanized antibody huNb103 (amino acid sequence refers to SEQ ID NO:16) and Dupilumab were diluted by 2-fold gradient dilution (40 ug/mL, 20 ug/mL, 10 ug/mL, 5 ug/mL, 2.5 ug/mL, 1.25 ug/mL, 0.625 ug/mL, 0.313 ug/mL, 0.156 ug/mL, 0.078 ug/mL). The cells in the 96-well plate were resuspended with the diluted antibody and incubated at 4° C. for 20 min. (3) Centrifugation was performed at 3000 rpm at 4° C. for 4 min, and 200 ul PBS was added to each well. After resuspension, centrifugation was performed at 3000 rpm at 4° C. for 4 min. (4) Diluted anti-human Fc-FITC antibody (diluted at 1:200) was added and incubated at 4° C. for 20 min. (5) Centrifugation was performed at 3000 rpm at 4° C. for 4 min, and the supernatant was discarded, 200 uL PBS was added into each well to wash cells for two times, then 200 uL PBS was added to re-suspend the cells. The cells were transferred to flow tube to detect FITC signal of each sample via flow cytometry.

Assay [4] has the same target. As to the kind of experiment: flow cytometry blocking of IL-4/IL-4R on HEK293F cells with high IL-4Rα expression, SA-PE. The method, then: (1) HEK293F cells with high IL-4Rα expression were collected, centrifuged at 1000 rpm for 5 min, and the supernatant was discarded. The cells were re-suspended with 5 mL PBS and centrifuged at 1000 rpm for 5 min, and the supernatant was discarded. Then the cells were re-suspended with 2 mL PBS, and counted. The cells were divided into 96-well plates with 3×10⁵ cells per well. (2) Humanized antibody huNb103 (amino acid sequence refers to SEQ ID NO:16) and Dupilumab were diluted by 2-fold gradient dilution (40 ug/mL, 20 ug/mL, 10 ug/mL, 5 ug/mL, 2.5 ug/mL, 1.25 ug/mL, 0.625 ug/mL, 0.313 ug/mL, 0.156 ug/mL, 0.078 ug/mL). The cells in the 96-well plate were resuspended with the diluted antibody and incubated at 4° C. for 20 min. (3) Centrifugation was performed at 3000 rpm at 4° C. for 4 min, and 200 ul PBS was added to each well. After resuspension, centrifugation was performed at 3000 rpm at 4° C. for 4 min. (4) Diluted SA-PE staining solution (diluted at 0.3:100) was added and incubated at 4° C. for 20 min. (5) Centrifugation was performed at 3000 rpm at 4° C. for 4 min, and the supernatant was discarded, 200 uL PBS was added into each well to wash cells for two times, then 200 uL PBS was added again to re-suspend the cells. The cells were transferred to flow tube to detect PE signal of each sample via flow cytometry.

B1: IL-4R single-domain antibody Nb103 (VHH)
VHH: QVQLQESGGGSVQAGGSLRVSCAASGSTSYRYCMAWFRQAPGKEREAVASIRPRSGRAYYADSVKGRFTISLDNAKNTLYLQMNSLKPEDTAMYYCAASDNDGNCQDYWGKGTQVTVSS
notes: also called candidate single-domain antibody Nb103; IL-4Ra Nb103 antibody; not shown: tag(s) from the pMECS phage vector
As to B1, the values for the binding result in the assay with cynomolgus monkey IL-4R, with mouse IL-4R and with rhesus monkeys IL-4R were “no binding (tested: 2 ug/mL antibody)”, “no binding (tested: 2 ug/mL antibody)” and “no binding”, respectively. In addition, the 50% inhibitory concentration (IC50) in assay [1] came out at 0.274 µg/mL. The “inhibition of TF-1 cell proliferation induced by IL-4 (CCK8, OD450)” value (“inhibition … by IL-4 (CCK8, OD450)” for short) in assay [2] came to 0.149 µg/mL. The “inhibition of TF-1 cell proliferation induced by IL-13 (CCK8, OD450)” value (“inhibition … by IL-13 (CCK8, OD450)” for short) in assay [2] came to 0.066 µg/mL.

B2: humanized tetravalent antibody tet-huNb103 (Fc fusion)
chain: EVQLVESGGGLVQPGGSLRLSCAASGSTSYRYCMAWFRQAPGKGLEAVASIRPRSGRAYYADSVKGRFTISRDNSKNTLYLQMNSLRAEDTAVYYCAASDNDGNCQDYWGKGTLVTVSSGGGGSGGGSEVQLVESGGGLVQPGGSLRLSCAASGSTSYRYCMAWFRQAPGKGLEAVASIRPRSGRAYYADSVKGRFTISRDNSKNTLYLQMNSLRAEDTAVYYCAASDNDGNCQDYWGKGTLVTVSSESKYGPPCPPCPAPEFLGGPSVFLFPPKPKDTLMISRTPEVTCVVVDVSQEDPEVQFNWYVDGVEVHNAKTKPREEQFNSTYRVVSVLTVLHQDWLNGKEYKCKVSNKGLPSSIEKTISKAKGQPREPQVYTLPPSEEMTKNQVSLTCLVKGFYPSDIAVEWESNGQPENNYKTTPPVLDSDGSFFLYSRLTVDKSRWQEGNVFSCSVMHEALHNHYTQKSLSLSLG
For the molecule B2, in assay [2], the “inhibition … by IL-4 (CCK8, OD450)” value is 0.02 µg/mL and the “inhibition … by IL-13 (CCK8, OD450)” value was found to be 0.026 µg/mL.

B3: humanized antibody huNb103 (humanized single-domain antibody fused with Fc) (Fc fusion)
chain: EVQLVESGGGLVQPGGSLRLSCAASGSTSYRYCMAWFRQAPGKGLEAVASIRPRSGRAYYADSVKGRFTISRDNSKNTLYLQMNSLRAEDTAVYYCAASDNDGNCQDYWGKGTLVTVSSESKYGPPCPPCPAPEFLGGPSVFLFPPKPKDTLMISRTPEVTCVVVDVSQEDPEVQFNWYVDGVEVHNAKTKPREEQFNSTYRVVSVLTVLHQDWLNGKEYKCKVSNKGLPSSIEKTISKAKGQPREPQVYTLPPSEEMTKNQVSLTCLVKGFYPSDIAVEWESNGQPENNYKTTPPVLDSDGSFFLYSRLTVDKSRWQEGNVFSCSVMHEALHNHYTQKSLSLSLG
notes: called bivalent, so two chains; expressed in HEK293F; also called humanized bivalent antibody; human bivalent antibody
As for B3, in assay [2], the “inhibition … by IL-4 (CCK8, OD450)” value was determined as 0.032 µg/mL and the “inhibition … by IL-13 (CCK8, OD450)” value came out at 0.059 µg/mL. The EC50 in assay [3] was 0.286 µg/mL. Further, the concentration for half-maximal inhibition (IC50) in assay [4] was found to be 0.474 µg/mL.

B4: Dupilumab (antibody, V domains shown)
VH: EVQLVESGGGLEQPGGSLRLSCAGSGFTFRDYAMTWVRQAPGKGLEWVSSISGSGGNTYYADSVKGRFTISRDNSKNTLYLQMNSLRAEDTAVYYCAKDRLSITIRPRYYGLDVWGQGTTVTVSS
VL: DIVMTQSPLSLPVTPGEPASISCRSSQSLLYSIGYNYLDWYLQKSGQSPQLLIYLGSNRASGVPDRFSGSGSGTDFTLKISRVEAEDVGFYYCMQALQTPYTFGQGTKLEIKR
Regarding B4, the IC50 in assay [1] was found to be 0.511 µg/mL; in assay [4], 1.13 µg/mL. Also, the concentration giving a half-maximal response (EC50) in assay [3] stood at 0.36 µg/mL.
